Values quoted from earlier work in article PMC4278352.

Biological target: PikAIII docking domain (Streptomyces venezuelae) (UniProt Q9ZGI3)
Sequence of UniProt Q9ZGI3 (Q9ZGI3 1-34): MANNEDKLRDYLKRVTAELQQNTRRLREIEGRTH

Substance: PikAII docking domain (from UniProt Q9ZGI4)
- Kd: 5 µM
